# Literature values in publication PMC10349181.
# Molecular target: Amyloid beta (Homo sapiens) (UniProt P05067)
# Sequence (P05067 672-711): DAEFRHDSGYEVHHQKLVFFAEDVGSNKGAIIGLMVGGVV
# Chain of VEGF-A (P15692 whole entry): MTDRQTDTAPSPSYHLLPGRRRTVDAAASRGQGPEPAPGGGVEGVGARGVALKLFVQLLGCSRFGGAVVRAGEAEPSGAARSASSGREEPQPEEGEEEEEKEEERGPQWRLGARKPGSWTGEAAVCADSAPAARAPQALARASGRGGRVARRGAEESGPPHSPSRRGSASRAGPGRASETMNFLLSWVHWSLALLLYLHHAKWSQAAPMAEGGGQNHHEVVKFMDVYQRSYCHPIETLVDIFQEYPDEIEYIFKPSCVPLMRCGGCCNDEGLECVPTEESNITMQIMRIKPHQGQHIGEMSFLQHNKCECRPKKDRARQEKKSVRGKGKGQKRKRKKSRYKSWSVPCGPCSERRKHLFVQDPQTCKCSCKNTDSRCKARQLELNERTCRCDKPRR
substance,measurement,value
VEGF-A (from UniProt P15692),Kd,0.05 nM
